Data from patent publication US20260092093A1 (TJ BIOPHARMA SHANGHAI, published 2026).

T1: hIL-18Rα ECD-Fc fusion protein (human, UniProt Q13478 22-329)
T1 construct: extracellular domain; captured on Protein A sensor
T1 sequence (looked up): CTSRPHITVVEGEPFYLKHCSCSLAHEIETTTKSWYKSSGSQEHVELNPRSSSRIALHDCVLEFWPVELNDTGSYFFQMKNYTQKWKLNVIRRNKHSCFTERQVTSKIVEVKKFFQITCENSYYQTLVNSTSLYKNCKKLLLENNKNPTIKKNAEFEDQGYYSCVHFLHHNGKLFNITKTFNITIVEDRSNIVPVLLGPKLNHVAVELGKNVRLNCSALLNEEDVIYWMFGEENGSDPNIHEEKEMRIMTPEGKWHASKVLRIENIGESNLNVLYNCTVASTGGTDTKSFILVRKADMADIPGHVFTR

T2: recombinant hIL-18Rα extracellular domain (human, UniProt Q13478 22-329, biotin label (selection) or fluorescent probe (single-clone FACS), sites not given)
T2 construct: extracellular domain; also called hIL-18Rα ECD; hIL-18Rα-ECD
T2 sequence (looked up): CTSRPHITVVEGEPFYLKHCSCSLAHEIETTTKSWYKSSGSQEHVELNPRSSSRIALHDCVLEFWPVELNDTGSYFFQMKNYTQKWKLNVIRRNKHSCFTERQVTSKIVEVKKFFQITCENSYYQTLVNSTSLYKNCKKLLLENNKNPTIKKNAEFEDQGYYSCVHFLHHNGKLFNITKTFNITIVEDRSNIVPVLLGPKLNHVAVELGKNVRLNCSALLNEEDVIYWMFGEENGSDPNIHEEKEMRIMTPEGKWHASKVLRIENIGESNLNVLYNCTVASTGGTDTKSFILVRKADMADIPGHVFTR


Legend:
[1] = molecular target: T1, hIL-18Rα ECD-Fc fusion protein; experiment: BLI (Octet RED96), hIL-18Rα ECD-Fc on Protein A sensor
Experimental: The affinities of IL-18 variant polypeptides for hIL-18Rα were assessed by Biolayer Interferometry (BLI) on Octet RED96 using Protein A sensor coated with hIL-18Rα ECD-Fc fusion protein, and WT hIL-18 was used as a control.

[2] = molecular target: T2, recombinant hIL-18Rα extracellular …; experiment: single-clone FACS, yeast display, 10 nM labelled hIL-18Rα ECD
Experimental: Following the screens described in Example 2, single clone FACS analysis was performed to verify the binding of selected yeast cell surface-expressed IL-18 variant polypeptides from Round 4 and Round 5 to 10 nM hIL-18Rα-ECD. Briefly, each yeast clone at the same density was incubated with 10 nM IL-18Rα-ECD labeled by fluorescent probe, respectively, followed by washing step. Then the ratio of fluorescent positive IL-18Rα ECD binding yeasts in the population of each clone were analyzed.

| Kd [1] [nM] | Response (nm) [1] [nm] | koff [1] [s⁻¹] | kon [1] [M⁻¹ s⁻¹] | % of fluorescence positive cells [2] [%] | Binder |
| --- | --- | --- | --- | --- | --- |
|  |  |  |  | 0.69 | SEQ ID NO 111 (ligand) YFPKLESKLSVIRNLNDQVLFIDQGNRPLFEDMTDSDCRDNAPRTIFIISMYKYSSKRGMAVTISVKCEKISTLSCENKIISFKEMNPPDGIKDTKSDIIFFQRSVPGHDNKMQFESSSYEGYFLACEKERDLFKLILKKEDELGDRSIMFTVQNED |
|  |  |  |  | 0.71 | SEQ ID NO 110 (ligand) YFPKLNSKLSVIRNLNDQVLFIDQGNRPLFEDMTDSDCRDNAPRTIFIISMYKLSPRRGMAVTISVKCEKISTLSCENKIISFKEMNPPDNIKDTKSDIIFFQRSVPGHDNKMQFESSSYEGYFLACEKERDLFKLILKKEDELGDRSIMFTVQNED |
|  |  |  |  | 1.08 | SEQ ID NO 108 (ligand) YFPKLGSKLSVIRNLNDQVLFIDQGNRPLFEDMTDSDCRDNAPRTIFIISMYKQSHYRGMAVTISVKCEKISTLSCENKIISFKEMNPPDNIKDTKSDIIFFQRSVPGHDNKMQFESSSYEGYFLACEKERDLFKLILKKEDELGDRSIMFTVQNED |
|  |  |  |  | 0.15 | SEQ ID NO 118 (ligand) YFPKLASKLSVIRNLNDQVLFIDQGNRPLFEDMTDSDCRDNAPRTIFIISMYKWSNARGMAVTISVKCEKISTLSCENKIISFKEMNPPDSIKDTKSDIIFFQRSVPGHDNKMQFESSSYEGYFLACEKERDLFKLILKKEDELGDRSIMFTVQNED |
|  |  |  |  | 1.34 | SEQ ID NO 106 (ligand) YFPKLSSKLSVIRNLNDQVLFIDQGNRPLFEDMTDSDCRDNAPRTIFIISMYKASSLRGMAVTISVKCEKISTLSCENKIISFKEMNPPDSIKDTKSDIIFFQRSVPGHDNKMQFESSSYEGYFLACEKERDLFKLILKKEDELGDRSIMFTVQNED |
|  |  |  |  | 0.35 | SEQ ID NO 115 (ligand) YFPKLGSKLSVIRNLNDQVLFIDQGNRPLFEDMTDSDCRDNAPRTIFIISMYKISHDRGMAVTISVKCEKISTLSCENKIISFKEMNPPDTIKDTKSDIIFFQSSVPGHDNKMQFESSSYEGYFLACEKERDLFKLILKKEDELGDRSIMFTVQNED |
|  |  |  |  | 0.61 | SEQ ID NO 113 (ligand) YFPKLRSKLSVIRNLNDQVLFIDQGNRPLFEDMTDSDCRDNAPRTIFIISMYKISISRGMAVTISVKCEKISTLSCENKIISFKEMNPPDNIKDTKSDIIFFQRSVPGHDNKMQFESSSYEGYFLACEKERDLFKLILKKEDELGDRSIMFTVQNED |
|  |  |  |  | 1.23 | SEQ ID NO 107 (ligand) YFPKLTSKLSVIRNLNDQVLFIDQGNRPLFEDMTDSDCRDNAPRTIFIISMYKTSYERGMAVTISVKCEKISTLSCENKIISFKEMNPPDVIKDTKSDIIFFQRSVPGHDNKMQFESSSYEGYFLACEKERDLFKLILKKEDELGDRSIMFTVQNED |
|  |  |  |  | 1.44 | SEQ ID NO 103 (ligand) YFSKLPSKLSVIRNLNDQVLFIDQGNRPLFEDMTDSDCRDNAPRTIFIISMYKWSPRRGMAVTISVKCEKISTLSCENKIISFKEMNPPDIIKDTKSDIIFFQSSVPGHDNKMQFESSSYEGYFLACEKERDLFKLILKKEDELGDRSIMFTVQNED |
|  |  |  |  | 0.98 | SEQ ID NO 109 (ligand) YFKKLPSKLSVIRNLNDQVLFIDQGNRPLFEDMTDSDCRDNAPRTIFIISMYKLSSERGMAVTISVKCEKISTLSCENKIISFKEMNPPDNIKDTKSDIIFFQRSVPGHDNKMQFESSSYEGYFLACEKERDLFKLILKKEDELGDRSIMFTVQNED |
|  |  |  |  | 0.69 | SEQ ID NO 112 (ligand) YFPKLRSKLSVIRNLNDQVLFIDQGNRPLFEDMTDSDCRDNAPRTIFIISMYKHSTNRGMAVTISVKCEKISTLSCENKIISFKEMNPPDIIKDTKSDIIFFQISVPGHDNKMQFESSSYEGYFLACEKERDLFKLILKKEDELGDRSIMFTVQNED |

The next lines start with the binder.

| Binder | Kd [1] [nM] | Response (nm) [1] [nm] | koff [1] [s⁻¹] | kon [1] [M⁻¹ s⁻¹] | % of fluorescence positive cells [2] [%] |
| --- | --- | --- | --- | --- | --- |
| IL-18 variant polypeptide M1 (ligand) YFPKLKSKLSVIRNLNDQVLFIDQGNRPLFEDMTDSDCRDNAPRTIFIISMYKHSDRRGMAVTISVKCEKISTLSCENKIISFKEMNPPDVIKDTKSDIIFFQVSVPGHDNKMQFESSSYEGYFLACEKERDLFKLILKKEDELGDRSIMFTVQNED | 2030 | 0.0186 | 0.111 | 54400 | 89.8 |
| SEQ ID NO 101 (ligand) YFPKLKSKLSVIRNLNDQVLFIDQGNRPLFEDMTDSDCRDNAPRTIFIISMYKLSRTRGMAVTISVKCEKISTLSCENKIISFKEMNPPDFIKDTKSDIIFFQSSVPGHDNKMQFESSSYEGYFLACEKERDLFKLILKKEDELGDRSIMFTVQNED |  |  |  |  | 1.91 |
| SEQ ID NO 100 (ligand) YFSKLPSKLSVIRNLNDQVLFIDQGNRPLFEDMTDSDCRDNAPRTIFIISMYKYSTWRGMAVTISVKCEKISTLSCENKIISFKEMNPPDFIKDTKSDIIFFQSSVPGHDNKMQFESSSYEGYFLACEKERDLFKLILKKEDELGDRSIMFTVQNED |  |  |  |  | 2.16 |
| IL-18 variant polypeptide M4 (ligand) YFPKLKSKLSVIRNLNDQVLFIDQGNRPLFEDMTDSDCRDNAPRTIFIISMYKWSGVRGMAVTISVKCEKISTLSCENKIISFKEMNPPDVIKDTKSDIIFFQFSVPGHDNKMQFESSSYEGYFLACEKERDLFKLILKKEDELGDRSIMFTVQNED | 39.1 | 0.0326 | 0.017 | 436000 | 44.9 |
| SEQ ID NO 97 (ligand) YFPKLKSKLSVIRNLNDQVLFIDQGNRPLFEDMTDSDCRDNAPRTIFIISMYKTSFNRGMAVTISVKCEKISTLSCENKIISFKEMNPPDVIKDTKSDIIFFQRSVPGHDNKMQFESSSYEGYFLACEKERDLFKLILKKEDELGDRSIMFTVQNED |  |  |  |  | 2.66 |
| SEQ ID NO 95 (ligand) YFWKLSSKLSVIRNLNDQVLFIDQGNRPLFEDMTDSDCRDNAPRTIFIISMYKLSTWRGMAVTISVKCEKISTLSCENKIISFKEMNPPDYIKDTKSDIIFFQRSVPGHDNKMQFESSSYEGYFLACEKERDLFKLILKKEDELGDRSIMFTVQNED |  |  |  |  | 3.45 |
| SEQ ID NO 96 (ligand) YFPKLHSKLSVIRNLNDQVLFIDQGNRPLFEDMTDSDCRDNAPRTIFIISMYKRSTLRGMAVTISVKCEKISTLSCENKIISFKEMNPPDGIKDTKSDIIFFQRSVPGHDNKMQFESSSYEGYFLACEKERDLFKLILKKEDELGDRSIMFTVQNED |  |  |  |  | 2.79 |
| SEQ ID NO 102 (ligand) YFPKLRSKLSVIRNLNDQVLFIDQGNRPLFEDMTDSDCRDNAPRTIFIISMYKFSNFRGMAVTISVKCEKISTLSCENKIISFKEMNPPDAIKDTKSDIIFFQSSVPGHDNKMQFESSSYEGYFLACEKERDLFKLILKKEDELGDRSIMFTVQNED |  |  |  |  | 1.64 |
| IL-18 variant polypeptide M5 (ligand) YFEKLTSKLSVIRNLNDQVLFIDQGNRPLFEDMTDSDCRDNAPRTIFIISMYKWSPWRGMAVTISVKCEKISTLSCENKIISFKEMNPPDVIKDTKSDIIFFQTSVPGHDNKMQFESSSYEGYFLACEKERDLFKLILKKEDELGDRSIMFTVQKED | 38.8 | 0.0468 | 0.0149 | 383000 | 96 |
| IL-18 variant polypeptide M3 (ligand) YFPKLKSKLSVIRNLNDQVLFIDQGNRPLFEDMTDSDCRDNAPRTIFIISMYKWSHVRGMAVTISVKCEKISTLSCENKIISFKEMNPPDAIKDTKSDIIFFQYSVPGHDNKMQFESSSYEGYFLACEKERDLFKLILKKEDELGDRSIMFTVQNED | 2140 | 0.057 | 0.0431 | 20100 | 93.3 |
| IL-18 variant polypeptide M2 (ligand) YFSKLKSKLSVIRNLNDQVLFIDQGNRPLFEDMTDSDCRDNAPRTIFIISMYKWSPDRGMAVTISVKCEKISTLSCENKIISFKEMNPPDGIKDTKSDIIFFQTSVPGHDNKMQFESSSYEGYFLACEKERDLFKLILKKEDELGDRSIMFTVQNED | 12200 | 0.0184 | 0.0499 | 4090 | 91.6 |
| SEQ ID NO 98 (ligand) YFPKLTSKLSVIRNLNDQVLFIDQGNRPLFEDMTDSDCRDNAPRTIFIISMYKYSTRRGMAVTISVKCEKISTLSCENKIISFKEMNPPDNIKDTKSDIIFFQRSVPGHDNKMQFESSSYEGYFLACEKERDLFKLILKKEDELGDRSIMFTVQNED |  |  |  |  | 2.36 |
